The record followed here is patent US20240059769A1 (BIOLOJIC DESIGN, published 2024).

Changes are numbered by the printed parent chain.

The labels stand for the following.
B1: BDG38.090 (antibody, V domains shown)
VH: QMQLVESGGGVVQPGRSLTLSCAASGFEFRTYGMHWVRQAPGKGLEWLGVIWDDGSNTHYADSVKGRFTITRDNSKNTLNLQMNSLRVEDTAVYYCARAPQWYLTAEAFDLWGQGTMVTVSS
VL: SYILTQPPSVSVAPGETARITCGGNLIGARLVHWYQQKPGQAPVLVVYDDSDRPSRIPERFSGSNIGNTATLTIEDVEEGDEADYYCQVWDYYSDHMVFGGGTKLTVL
notes: IgG1
B2: BDG38.076 (antibody, V domains shown)
VH: B1 VH with T19R, E28A, L48V, G49A, N57A, V88A, A97V
VL: SYVLTQPPSVSVAPGETASITCGGNMIGGYLVHWYQQKPGQAPLLVIYDDVDRPARIPERFSGSNSGNTATLTISRVEAGDEADYYCQVWDHDTNHMVFGGGTKLTVL
notes: IgG1
B3: BDG38.096 (antibody, V domains shown)
VH: B1 VH with T19R, L48V, G49A, A97V
VL: B1 VL with V47I, E75S, D76R, Y93S, H96S
notes: IgG1
B4: BDG38.092 (antibody, V domains shown)
VH: B1 VH with G49A, A97V
VL: B1 VL with I3V, R19T, V47I, E75S
notes: IgG1
B5: BDG38.112 (antibody, V domains shown)
VH: B1 VH with T19R, D53Y, V88A, A97V
VL: B1 VL with E16Q, R19T, V47I, D76R, Y93S, H96T, M97Y
notes: IgG1
B6: BDG38.116 (antibody, V domains shown)
VH: B1 VH with L48V, G49A, A97V
VL: B1 VL with I3V, E16Q, R19T, V47I, D76R, E79A, H96T
notes: IgG1
B7: BDG38.135 (antibody, V domains shown)
VH: B1 VH with R16Q, T19R, E28A, G49A, D53Y, V88A, A97V, L104N, T105S
VL: SYVLTQPPSVSVAPGQTARITCGGNLIGARLVHWYQQKPGQAPVLVVYDDSDRPSHIPERFSGSNSGNTATLTISRVEAGDEADYYCQVWDHSADTMVFGGGTKLTVL
B8: BDG38.137 (antibody, V domains shown)
VH: B1 VH with R16Q, T19R, L48V, G49A, V88A, A97V
VL: B7 VL with Q16E, R19T, V47I, H92Y
notes: IgG1
B9: BDG38.126 (antibody, V domains shown)
VH: B1 VH with T19R, L48V, V88A, A97V
VL: B1 VL with E16Q, R30K, V47I, D76R, Y93S
notes: IgG1

For one assay, the target named is T1, human TSLP (human, UniProt Q969D9 29-159).
T1 construct: also called hTSLP; rhTSLP
Nature of the assay: SPR. Background: Surface plasmon resonance follows binding to a sensor surface in real time, without labels.
For the molecule B1, the affinity, expressed as Kd, was 11.8 pM; the dissociation rate constant (koff) was 0.000113 s⁻¹; the kon was 9.57e+06 M⁻¹ s⁻¹.
On the same counts, the results for B2 are 1.61 pM, 3.22e-05 s⁻¹ and 2e+07 M⁻¹ s⁻¹.
Molecule B3 displayed a dissociation constant (Kd) of 21 pM, a koff of 0.000133 s⁻¹ and a kon of 6.33e+06 M⁻¹ s⁻¹.
As to B4, the Kd is 3.92 pM, the off-rate constant (koff) amounted to 2.46e-05 s⁻¹ and the kon worked out at 6.28e+06 M⁻¹ s⁻¹.
On the same counts, the results for B5 are 258 pM, 0.000274 s⁻¹ and 1.06e+06 M⁻¹ s⁻¹.
The matching figures for B6: 7.27 pM, 3.95e-05 s⁻¹ and 5.44e+06 M⁻¹ s⁻¹.

For a further assay, the target named is T2, recombinant human IL-13 (human, UniProt P35225 35-146).
T2 construct: also called rh-IL-13; hIL-13
T2 sequence (P35225 35-146 limits assumed): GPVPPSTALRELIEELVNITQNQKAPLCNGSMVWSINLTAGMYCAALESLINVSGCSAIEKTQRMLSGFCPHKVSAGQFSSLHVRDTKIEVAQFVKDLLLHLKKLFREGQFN
Nature of the assay: SPR.
On to B1, for which the dissociation constant Kd stood at 19.8 pM, the off-rate constant (koff) turned out to be 0.00013 s⁻¹ and the kon was found to be 6.57e+06 M⁻¹ s⁻¹.
The matching figures for B2: 35.4 pM, 0.000231 s⁻¹ and 6.53e+06 M⁻¹ s⁻¹.
The matching figures for B3: 25.1 pM, 0.000155 s⁻¹ and 6.19e+06 M⁻¹ s⁻¹.
The matching figures for B4: 9.5 pM, 5.37e-05 s⁻¹ and 5.65e+06 M⁻¹ s⁻¹.
Turning to B5, the dissociation constant (Kd) worked out at 17.3 pM, the dissociation rate constant (koff) stood at 4.02e-05 s⁻¹ and the kon worked out at 2.32e+06 M⁻¹ s⁻¹.
The matching figures for B6: 21 pM, 0.000116 s⁻¹ and 5.51e+06 M⁻¹ s⁻¹.

A further assay has as its target T2, recombinant human IL-13. The assay is described as follows: cell-based or functional assay.
With B1, the “HEK-IL-13 [nM] (IC50, STAT6 reporter)” value is 0.103 nM.
In the case of B7, the “HEK-IL-13 [nM] (IC50, STAT6 reporter)” value is 0.406 nM.
Consider B2, for which the “HEK-IL-13 [nM] (IC50, STAT6 reporter)” value came out at 0.0494 nM.
With B3, the “HEK-IL-13 [nM] (IC50, STAT6 reporter)” value was 0.15 nM.
Turning to B4, the “HEK-IL-13 [nM] (IC50, STAT6 reporter)” value amounted to 0.12 nM.
B5: the “HEK-IL-13 [nM] (IC50, STAT6 reporter)” value was found to be 0.0367 nM.
Still for that read-out and setting: the same measure for B6: 0.18 nM; for B8: 0.195 nM.
On to B9, for which the “HEK-IL-13 [nM] (IC50, STAT6 reporter)” value was 0.079 nM.

For another assay, the target named is T3, recombinant cynomolgus monkey IL-13 (cynomolgus monkey, UniProt Q0PW92 21-132).
T3 construct: bought; also called rc-IL-13; cIL-13
T3 sequence (Q0PW92 entry or part of it): as the sequence (P35225 35-146 limits assumed) above, with G1S, R10K, M42V, S67N, H83R, L100V counted along it
The assay is described as follows: SPR.
For B1, the Kd was 75.2 pM, the off-rate (koff) worked out at 0.00187 s⁻¹ and the on-rate (kon) is 2.49e+07 M⁻¹ s⁻¹.
On the same counts, the results for B2 are 822 pM, 0.00671 s⁻¹ and 8.16e+06 M⁻¹ s⁻¹.
The matching figures for B3: 44.2 pM, 0.00242 s⁻¹ and 5.47e+07 M⁻¹ s⁻¹.
Turning to B4, the Kd is 42.8 pM, the koff came to 0.00129 s⁻¹ and the kon stood at 3.01e+07 M⁻¹ s⁻¹.
For B6, the Kd turned out to be 27 pM, the off-rate (koff) amounted to 0.000847 s⁻¹ and the on-rate (kon) was 3.14e+07 M⁻¹ s⁻¹.

For the next assay, the target named is T4, cynomolgus monkey (cyno) TSLP (cynomolgus monkey, UniProt A0A7N9CAT7 29-159).
T4 construct: also called cTSLP; cynomolgus TSLP
T4 sequence (A0A7N9CAT7 entry or part of it): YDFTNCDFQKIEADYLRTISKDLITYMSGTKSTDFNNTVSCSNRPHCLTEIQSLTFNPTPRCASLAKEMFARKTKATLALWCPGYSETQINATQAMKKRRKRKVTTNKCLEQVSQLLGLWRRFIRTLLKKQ
The assay is described as follows: SPR.
In turn, B1 yielded a dissociation constant (Kd) of 9.01 pM, an off-rate constant (koff) of 5.53e-05 s⁻¹ and a kon of 6.14e+06 M⁻¹ s⁻¹.
B2 showed a Kd of 0.00512 pM, a koff of 3.99e-08 s⁻¹ and a kon of 7.8e+06 M⁻¹ s⁻¹.
The matching figures for B3: 18.1 pM, 6.14e-05 s⁻¹ and 3.39e+06 M⁻¹ s⁻¹.
The matching figures for B4: 4.48 pM, 1.72e-05 s⁻¹ and 3.84e+06 M⁻¹ s⁻¹.
On the same counts, the results for B6 are 27.1 pM, 0.000386 s⁻¹ and 1.43e+07 M⁻¹ s⁻¹.

The target in another assay is T1, human TSLP. Nature of the assay: cell-based or functional assay.
For the molecule B1, the “IC50 TARC” value was determined as 7.55 pM.
On to B7, for which the “IC50 TARC” value was 804 pM.
The same measure, in the same setting: the same measure for B2: 3210 pM; for B3: 23400 pM.
As for B4, the “IC50 TARC” value stood at 5880 pM.
The same measure, in the same setting: the same measure for B5: 104 pM.
On the same count and under the same terms, the same measure for B6: 59400 pM.
Same read-out and setting: the same measure for B8: 823 pM; for B9: 2580 pM.

Another assay has as its target T2, recombinant human IL-13. Nature of the assay: cell-based or functional assay. This is another data set of the same source.
Regarding B1, the “IC50 CD23” value was determined as 6.56 pM.
As to B7, the “IC50 CD23” value was 408 pM.
As for B2, the “IC50 CD23” value was determined as 308 pM.
For B3, the “IC50 CD23” value is 250 pM.
For B4, the “IC50 CD23” value is 67.5 pM.
The same measure, in the same setting: the same measure for B5: 59.4 pM; for B6: 83.7 pM; for B8: 373 pM.
On the same count and under the same terms, the same measure for B9: 86.8 pM.

The target of a further assay is T1, human TSLP. Nature of the assay: SPR. This is another data set of the same source.
In the case of B8, the Kd stood at 16.1 pM, the koff is 7.01e-05 s⁻¹ and the kon worked out at 4.36e+06 M⁻¹ s⁻¹.
In turn, B9 came in with a Kd of 17.4 pM, a koff of 6.72e-05 s⁻¹ and a kon of 3.87e+06 M⁻¹ s⁻¹.

The next assay concerns the target T2, recombinant human IL-13. The assay is described as follows: SPR. The source holds these as a separate data set.
On to B8, for which the Kd is 58 pM, the off-rate constant (koff) was determined as 0.000252 s⁻¹ and the kon was 4.34e+06 M⁻¹ s⁻¹.
The matching figures for B9: 29.1 pM, 0.000143 s⁻¹ and 4.92e+06 M⁻¹ s⁻¹.

The next assay concerns the target T5, hTSLP-His (human, UniProt Q969D9 29-159, limits assumed).
T5 construct: bought; also called hTSLP (ACROBiosystems TSP-H52Hb); not shown: His tag
The assay is described as follows: competition ELISA, 7 nM TSLP-His pre-incubated with antibody; competitor Tezepelumab coated.
For B1, the IC50 came to 7310 pM.
Same read-out and setting: the same measure for B2: 5380 pM; for B3: 5870 pM.
B4 had a 50% inhibitory concentration (IC50) of 7380 pM.
Same read-out and setting: the same measure for B5: 29100 pM; for B6: 5120 pM; for B8: 10900 pM.
B9 returned a concentration for half-maximal inhibition (IC50) of 5950 pM.

The next assay has as its target T5, hTSLP-His. Nature of the assay: cell-based or functional assay.
As for B1, the “IC50 [pM], STAT5 phosphorylation inhibition in MUTZ5 cells” value was 43.4 pM.
Regarding B2, the “IC50 [pM], STAT5 phosphorylation inhibition in MUTZ5 cells” value is 30.1 pM.
Still for that read-out and setting: the same measure for B4: 33 pM; for B5: 11400 pM; for B8: 1.85 pM.
On the same count and under the same terms, the same measure for B9: 0.0421 pM.

The Kd is the equilibrium constant for the complex coming apart. What is called koff is the rate constant with which the complex falls apart. As usually defined, the kon is a measure of how fast the partners come together. One may read the IC50 as the concentration that inhibits the measured activity by half.
